For one test, the target named is HLA-A*0201 (Homo sapiens, UniProt P04439, D140Y/D185E/D98H/E176V/E277Q/G131W/G231S/I119V/I121R/I166T/I218V/L300P/L318F/N151K/N90K/P208A/P217A/Q86G/Q94H/R138H/R169H/T345S). Kind of test: purified HLA class I binding assay, A*0201.
In a further test the target is HLA-A*2402 (Homo sapiens, UniProt P04439, D101N/D140Y/D185E/E176V/E190D/F33S/G103R/G107R/I119L/I121M/I306V/K335N/L105A/L180Q/L300P/N151K/N90K/Q86E/Q94H/R106L/R138H/R89G/T104I/T345S/V100E/W191G/Y123F). In words: purified HLA class I binding assay, A*2402.
Another test addresses HLA-A*0202 (Homo sapiens, UniProt P04439, D140Y/D185E/D98H/E176V/E277Q/G131W/G231S/I119L/I121R/I166T/I218V/L180W/L300P/L318F/N151K/N90K/P208A/P217A/Q67R/Q86G/Q94H/R138H/R169H/T345S). In words: purified HLA class I binding assay, A*0202.
In the next test the target is HLA-A*0203 (Homo sapiens, UniProt P04439, A173T/D140Y/D185E/D98H/E277Q/G131W/G231S/I119V/I121R/I166T/I218V/L180W/L300P/L318F/N151K/N90K/P208A/P217A/Q86G/Q94H/R138H/R169H/T345S). In words: purified HLA class I binding assay, A*0203.
Another test concerns the target HLA-A*6802 (Homo sapiens, UniProt P04439, A269V/D140Y/D185E/E176V/E277Q/E87N/F33Y/G231S/I121R/I166T/I218V/L180W/L300P/L318F/N151K/P208A/P217A/Q86R/R138H/R169H/S129P/T345S/V36M). In words: purified HLA class I binding assay, A*6802.
In another test the target is HLA-A*0206 (Homo sapiens, UniProt P04439, D140Y/D185E/D98H/E176V/E277Q/F33Y/G131W/G231S/I119V/I121R/I166T/I218V/L300P/L318F/N151K/N90K/P208A/P217A/Q86G/Q94H/R138H/R169H/T345S). Kind of test: purified HLA class I binding assay, A*0206.
Another test addresses HLA-A*6801 (Homo sapiens, UniProt P04439, A269V/D185E/E176V/E277Q/E87N/F33Y/G231S/I121M/I166T/I218V/L180W/L300P/L318F/N151K/P208A/P217A/Q86R/R169H/T345S). Kind of test: purified HLA class I binding assay, A*6801. Particulars: for A*6801 binding information: Table IX, unit not given.
The next test deals with HLA-A*3101 (Homo sapiens, UniProt P04439, A270S/D185E/E176V/E277Q/F33T/G231S/G80R/H175R/I121M/I218V/I322F/K168Q/L300P/L318F/M331R/P217A/Q94H/R138Q/T323A/T345S/T97I/V358M). In words: purified HLA class I binding assay, A*3101. The following applies: for A*3101 binding information: Table IX, unit not given.
The target in a further test is HLA-A*1101 (Homo sapiens, UniProt P04439, A114D/D185E/E176A/F33Y/L180Q/S129P/T187R). In words: purified HLA class I binding assay, A*1101.
The next test has as its target T1, HLA-A*0301 (Homo sapiens, UniProt P04439).
T1 construct: endogenous in cells; host or cells: GM3107
Kind of test: purified HLA class I binding assay, A*0301. The following applies: for A0301 (binding information): HIV A03 motif peptides, Table XVI; for A*0301 binding information: Table IX.

Where [1] appears, read: HIV A02 super motif peptides, Table VIII, unit not given.
Where [2] appears, read: HIV A24 supermotif peptides, purified HLA molecule, no unit printed in Table X.
The mark [3] stands for this setting: Table VIII, HIV A02 Super Motif Peptides with Binding Information, unit not given.
Where [4] appears, read: HIV A03 supermotif peptides, Table IX, unit not given.
Setting [5] is: HIV A03 supermotif peptides, unit not given.
The mark [6] stands for this setting: HIV A03 super motif peptides, binding value.
Setting [7] is: Table IX, HIV A03 super motif peptides, binding value, unit not given.
[8] abbreviates: HIV A03 super motif peptides, binding value, unit not given.

No end group written: not given here.

Turning to NMWQEVGKA, the “A*0201 (binding information)” value in the test with HLA-A*0201 (setting [1]) stood at 0.0022. The “A*2401 (binding information)” value with HLA-A*2402 (setting [2]) stood at 0.0001.
Take LIFGWCFKLV: the “A*0202 binding information” value with HLA-A*0202 (setting [3]) is 0.0880. The “A*0203 binding information” value with HLA-A*0203 (setting [3]) is given as 0.0540. Also, the “A*0201 (binding information)” value in the test with HLA-A*0201 (setting [3]) turned out to be 0.0170. Also, the “A*6802 binding information” value with HLA-A*6802 (setting [3]) is on record as 6.5000. Moreover, in the test with HLA-A*0206 (setting [3]), the “A*0206 binding information” value is 0.0640.
For the compound RFAVPGLL, the “A*2401 (binding information)” value in the test with HLA-A*2402 (HIV A24 motif peptides, binding value for purified HLA-A24 molecule, A*2401, unit not given) was found to be 0.0100.
QLLFIIIFRI: in the test with HLA-A*0202 (setting [1]), the “A*0202 binding” value amounted to 0.0002. In the test with HLA-A*0203 (setting [1]), the “A*0203 binding” value is recorded as 0.0004. In the test with HLA-A*0201 (setting [1]), the “A*0201 binding” value amounted to 0.0530. For the same compound, the “A*6802 binding” value with HLA-A*6802 (setting [1]) was found to be 0.0840. The “A*0206 binding” value in the test with HLA-A*0206 (setting [1]) worked out at 0.0023.
For `CC[C@H](C)[C@H](NC(=O)[C@@H]1CCCN1C(=O)[C@@H]1CCCN1C(=O)[C@H](CC(N)=O)NC(=O)[C@H](CC(N)=O)NC(=O)[C@@H](NC(=O)[C@@H](N)CCSC)[C@@H](C)O)C(=O)N1CCC[C@H]1C(=O)N[C@H](C(=O)O)C(C)C` [Peptide 1261.03], the IC50 turned out to be 7170 nM at HLA-A*0202 and 12.1 nM on HLA-A*6802.
With QMVIIQAISPR, the “A*6801 binding information” value with HLA-A*6801 (HIV A03 supermotif peptides) is given as 0.0430. In addition, in the test with HLA-A*3101 (HIV A03 supermotif peptides), the “A*3101 binding information” value is on record as 0.0740. Moreover, in the test with HLA-A*1101 (setting [4]), the “A*1101 (binding information)” value was found to be 0.0010. For the same compound, the “A0301 (binding information)” value with HLA-A*0301 (binding value unit not given) is listed as 0.0260. The “A*0301 binding information” value with HLA-A*0301 (setting [5]) is on record as 0.0260.
As to DIQIKELQK, the “A*6801 binding information” value with HLA-A*6801 (setting [6]) is recorded as 0.0001. For the same compound, the “A*3101 binding information” value with HLA-A*3101 (setting [6]) was 0.0006. Also, in the test with HLA-A*1101 (setting [7]), the “A*1101 (binding information)” value came out at 0.0006. In addition, the “A*0301 binding information” value in the test with HLA-A*0301 (setting [8]) is 0.0009.
For NMVEQMIIEDI, the “A*0201 (binding information)” value with HLA-A*0201 (setting [1]) was found to be 0.0001. In addition, the “A*2401 (binding information)” value with HLA-A*2402 (setting [2]) is 0.0004.
Turning to `CC[C@H](C)[C@H](NC(=O)[C@H](CC(=O)O)NC(=O)[C@@H](NC(=O)[C@H](C)NC(=O)[C@H](CC(N)=O)NC(=O)[C@H](CC(C)C)NC(=O)[C@H](CC(C)C)NC(=O)[C@@H](N)CO)[C@@H](C)O)C(=O)N[C@@H](C)C(=O)N[C@H](C(=O)O)C(C)C` [Peptide 1211.09], the half-maximal inhibitory concentration (IC50) at HLA-A*0202 is 1300 nM; on HLA-A*6802, 5480 nM; at HLA-A*0206, 28.5 nM.
Regarding TVQCTIIGIK, the “A*6801 binding information” value with HLA-A*6801 (HIV A03 supermotif peptides) was 0.0190. In addition, the “A*3101 binding information” value in the test with HLA-A*3101 (HIV A03 supermotif peptides) was determined as 0.0042. In the test with HLA-A*1101 (setting [4]), the “A*1101 (binding information)” value came out at 0.0460. Further, in the test with HLA-A*0301 (unit not given), the “A0301 (binding information)” value is 0.0021. The “A*0301 binding information” value with HLA-A*0301 (setting [5]) was determined as 0.0021.
For the compound YWQATWIPE, the “A*2401 (binding information)” value with HLA-A*2402 (HIV A24 motif peptides, purified HLA-A24 molecule, unit not given) is given as 0.0660; with HLA-A*2402 (HIV A24 supermotif peptides, binding value printed without unit in Table X), 0.0660.
Turning to `CC[C@H](C)[C@H](NC(=O)[C@H](C)N)C(=O)N[C@H](C(=O)N[C@@H](CCCNC(=N)N)C(=O)N[C@H](C(=O)N[C@@H](CC(C)C)C(=O)N[C@@H](CCC(N)=O)C(=O)N[C@@H](CCC(N)=O)C(=O)N[C@@H](CC(C)C)C(=O)O)[C@@H](C)CC)[C@@H](C)CC` [Peptide 1261.11], the half-inhibitory concentration (IC50) at HLA-A*0202 was found to be 22.6 nM; on HLA-A*6802 it was 548 nM; on HLA-A*0206 it was 38.5 nM.
For TLFCASDAK [1273.06], the half-maximal inhibitory concentration (IC50) on HLA-A*6801 is 191 nM; at HLA-A*3101, 10600 nM.
With WMTNNPPIPV [25.0139], the concentration for half-maximal inhibition (IC50) at HLA-A*0202 was found to be 3070 nM; on HLA-A*0203 it was 16.9 nM; on HLA-A*0201, 98 nM; at HLA-A*6802, 2220 nM.
On to IWQLDCTIIL, for which the “A*2401 (binding information)” value with HLA-A*2402 (HIV A24 supermotif peptides, Table X, A*2401, unit not given) is given as 0.0095.
As for WMGYELIIPDK, in the test with HLA-A*6801 (setting [6]), the “A*6801 binding information” value came out at 0.0003. In addition, the “A*3101 binding information” value with HLA-A*3101 (setting [6]) stood at 0.0009. For the same compound, the “A*1101 (binding information)” value was 0.0004 with HLA-A*1101 (setting [7]) and 0.0004 with HLA-A*1101 (Table XVII, HIV A11 motif peptides, binding value A*1101, unit not given). The “A*0301 binding information” value with HLA-A*0301 (setting [8]) amounted to 0.0005.

A word on the IC50: it is the concentration needed to halve the response being measured. A lower IC50 goes with higher potency.
